According to patent US20240392037A1 (UNIVERSITY OF PITTSBURGH OF THE COMMONWEALTH SYSTEM OF …, published 2024):

How the values were obtained:
[1] = biological target: T1, human neutrophil elastase (NE) polypeptide (human, UniProt P08246 28-267, limits assumed); assay: cell-based or functional assay
T1 sequence: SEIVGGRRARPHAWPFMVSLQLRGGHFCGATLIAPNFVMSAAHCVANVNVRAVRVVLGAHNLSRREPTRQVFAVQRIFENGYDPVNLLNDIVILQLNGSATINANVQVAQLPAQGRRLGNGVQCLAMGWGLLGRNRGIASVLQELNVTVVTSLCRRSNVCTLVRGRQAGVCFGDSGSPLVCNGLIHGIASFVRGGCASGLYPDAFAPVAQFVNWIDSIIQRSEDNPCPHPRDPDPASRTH

[2] = biological target: T1, human neutrophil elastase (NE) …; assay: ELISA, NE coated at 50 ng/well, anti-FLAG-HRP detection
Description: (§1) The NE polypeptide was coated in 96-well microplates at 50 ng/well in PBS at 4° C. over-night and blocked with 5% milk in PBS for 2 hours at room temperature. For the soluble Fab/VH binding assay, the 3-fold serially diluted Fab/VH were added and incubated for 1 hour at 37° C. and further incubated with anti-FLAG M2-peroxidase (HRP) antibody (A8592, Sigma-Aldrich) for another 1 hour. For the IgG₁ binding assay, HRP conjugated goat anti-human IgG₁ Fc (Sigma-Aldrich) was used for detection. Finally, the reaction was developed by 3,3′,5,5′-tetramethylbenzidine (TMB, Sigma-Aldrich) and stopped by TMB stop buffer (ScyTek laboratories). Absorbance was recorded at 450 nm. The experiment was performed in duplicate.

[3] = biological target: T1, human neutrophil elastase (NE) …; assay: as above; remark: listed apart in the source
Description: (§2) FIG. 12. Specificity of VH/VH-Fc and Fab/IgG1 with recombinant human NE. (A and B) Binding of Fab 1C10 (A) and VH 1D1.43 (B) to rhNE, rhMPO, and PR3 measured by ELISA. (C and D) Binding of IgG1 1C10 (C) and VH-Fc 1D1.43 (D) to rhNE, rhMPO, BSA, and PR3 measured by ELISA. rhNE, rhMPO, BSA, and PR3 were coated in 96-well microplates at 50 ng/well. Experiments were performed in duplicate. Values were reported as the mean±SD.
as §1

Proteinase 3 [4] = biological target: T2, Proteinase 3 (UniProt P24158 28-248, limits assumed); assay: ELISA, PR3 coated at 50 ng/well, anti-FLAG-HRP detection
T2 construct: Specificity control, coated at 50 ng/well in ELISA; also called PR3
T2 sequence (looked up): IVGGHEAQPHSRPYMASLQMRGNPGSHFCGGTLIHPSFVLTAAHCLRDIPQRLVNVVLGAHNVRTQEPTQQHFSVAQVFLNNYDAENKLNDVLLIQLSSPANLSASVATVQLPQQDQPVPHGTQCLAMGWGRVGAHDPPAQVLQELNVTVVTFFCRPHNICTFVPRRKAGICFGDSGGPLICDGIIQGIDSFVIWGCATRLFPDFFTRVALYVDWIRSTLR
Description: as §2, §1

[5] = biological target: T1, human neutrophil elastase (NE) …; assay: BLItz biolayer interferometry, NE-Biotin on streptavidin biosensor
Description: The affinity and avidity of anti-hNE binders were detected by biolayer interferometry BLItz (ForteBio, Menlo Park, CA). Briefly, Dulbecco's PBS (DPBS) was used to establish baseline for 30 seconds, and streptavidin biosensor (ForteBio) was coated with 16.7 μg/mL recombinant NE-Biotin for 2 minutes. […] Antigen coated biosensors with PBS served as reference controls. The dissociation was monitored in DPBS for 4 minutes.

[6] = biological target: T3, recombinant human myeloperoxidase protein (human, UniProt P05164 49-745, limits assumed); assay: ELISA, rhMPO coated at 50 ng/well, anti-FLAG-HRP detection
T3 construct: Specificity control, coated at 50 ng/well in ELISA; also called rhMPO
T3 sequence (looked up): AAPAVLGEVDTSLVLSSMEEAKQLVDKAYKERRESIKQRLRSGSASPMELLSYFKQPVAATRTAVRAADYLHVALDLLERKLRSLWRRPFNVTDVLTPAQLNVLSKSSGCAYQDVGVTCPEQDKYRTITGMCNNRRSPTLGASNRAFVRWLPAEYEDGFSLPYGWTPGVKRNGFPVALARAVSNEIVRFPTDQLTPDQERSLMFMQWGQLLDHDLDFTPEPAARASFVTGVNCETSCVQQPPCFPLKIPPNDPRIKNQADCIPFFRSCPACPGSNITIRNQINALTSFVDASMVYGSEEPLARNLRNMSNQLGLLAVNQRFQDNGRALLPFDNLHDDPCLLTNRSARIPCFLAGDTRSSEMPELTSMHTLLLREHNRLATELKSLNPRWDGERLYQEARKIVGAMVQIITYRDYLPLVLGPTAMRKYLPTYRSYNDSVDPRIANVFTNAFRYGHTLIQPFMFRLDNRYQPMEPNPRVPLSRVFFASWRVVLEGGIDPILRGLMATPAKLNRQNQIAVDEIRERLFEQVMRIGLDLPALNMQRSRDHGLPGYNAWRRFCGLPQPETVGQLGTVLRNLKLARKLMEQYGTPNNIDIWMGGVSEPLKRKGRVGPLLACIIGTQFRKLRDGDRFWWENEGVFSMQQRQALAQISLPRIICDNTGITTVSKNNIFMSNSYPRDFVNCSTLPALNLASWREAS
Description: as §2, §1

[7] = biological target: T1, human neutrophil elastase (NE) …; assay: ELISA, NE coated at 50 ng/well, anti-human IgG1 Fc-HRP detection
Description: as §1

BSA [8] = biological target: T4, BSA (UniProt P02769 25-607); assay: ELISA, BSA coated at 50 ng/well, HRP anti-human IgG1 Fc detection
Description: as §2, §1

Proteinase 3 [9] = biological target: T2, Proteinase 3; assay: ELISA, PR3 coated at 50 ng/well, HRP anti-human IgG1 Fc detection
[10] = biological target: T3, recombinant human myeloperoxidase …; assay: ELISA, rhMPO coated at 50 ng/well, HRP anti-human IgG1 Fc detection
[11] = biological target: T1, human neutrophil elastase (NE) …; assay: ELISA, NE coated at 50 ng/well
Description: as §2, §1

BSA [12] = biological target: T4, BSA; assay: ELISA, BSA coated at 50 ng/well
Description: as §2, §1

Proteinase 3 [13] = biological target: T2, Proteinase 3; assay: ELISA, PR3 coated at 50 ng/well
Description: as §2, §1

[14] = biological target: T3, recombinant human myeloperoxidase …; assay: ELISA, rhMPO coated at 50 ng/well
Description: as §2, §1

Proteinase 3 [15] = biological target: T2, Proteinase 3; assay: ELISA, PR3 coated at 50 ng/well, anti-FLAG-HRP detection; remark: listed apart in the source
[16] = biological target: T3, recombinant human myeloperoxidase …; assay: ELISA, rhMPO coated at 50 ng/well, anti-FLAG-HRP detection; remark: listed apart in the source

T4 sequence (P02769 25-607 limits assumed): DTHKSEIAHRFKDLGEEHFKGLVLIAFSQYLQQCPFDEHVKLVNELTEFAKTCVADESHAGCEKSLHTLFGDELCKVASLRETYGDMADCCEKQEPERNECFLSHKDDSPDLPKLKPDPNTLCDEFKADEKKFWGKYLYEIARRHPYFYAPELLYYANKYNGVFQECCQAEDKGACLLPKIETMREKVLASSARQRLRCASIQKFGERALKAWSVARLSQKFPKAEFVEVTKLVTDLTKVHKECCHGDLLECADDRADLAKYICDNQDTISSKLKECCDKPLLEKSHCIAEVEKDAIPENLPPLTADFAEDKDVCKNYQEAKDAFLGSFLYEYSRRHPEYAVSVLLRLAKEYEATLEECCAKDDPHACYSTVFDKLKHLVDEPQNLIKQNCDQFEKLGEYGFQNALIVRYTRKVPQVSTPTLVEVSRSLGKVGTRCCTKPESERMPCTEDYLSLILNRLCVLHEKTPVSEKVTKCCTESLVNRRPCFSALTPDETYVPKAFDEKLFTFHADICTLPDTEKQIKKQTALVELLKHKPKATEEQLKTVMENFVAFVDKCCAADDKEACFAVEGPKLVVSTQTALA

B1: Fab 1C10 (Fab, V domains shown)
VH: QVQLVESGGGLVKPGGSLRLSCAASGFTFSDYYMSWIRQAPGKGLEWVSYISSSGSTIYYADSVKGRFTISRDNAKNSLYLQMNSLRAEDTAVYYCARVGGDFWSGFLMDVWGQGTTVTVSS
VL: DIQMTQSPSSLSASVGDRVTITCRASQSISSYLNWYQQKPGKAPKLLIYAASSLQSGVPSRFSGSGSGTDFTLTISSLQPEDVAVYYCMQALQTPLTFGQGTKLEIKR
notes: Human Fab from a phage library; also called Clone #1; #1 (Fab)
[1]
  IC50 of inhibition of neutrophil elastase enzyme activity: ~5000 nM
[2]
  EC50: 16.3 nM
[3]
  EC50 (read off the curve): ~3 nM
Proteinase 3 [4]
  binding result: no binding (tested: about 7,000 nM)
[5]
  Kd: 8.5 nM
[6]
  binding result: no binding (tested: about 7,000 nM)

B2: IgG1 1C10 (antibody, V domains shown)
VH: QVQLVESGGGLVKPGGSLRLSCAASGFTFSDYYMSWIRQAPGKGLEWVSYISSSGSTIYYADSVKGRFTISRDNAKNSLYLQMNSLRAEDTAVYYCARVGGDFWSGFLMDVWGQGTTVTVSS
VL: DIQMTQSPSSLSASVGDRVTITCRASQSISSYLNWYQQKPGKAPKLLIYAASSLQSGVPSRFSGSGSGTDFTLTISSLQPEDVAVYYCMQALQTPLTFGQGTKLEIKR
notes: Fab 1C10 converted to a bivalent human IgG1 (heavy and light chains re-cloned into the pcDNA-IgG1 vector, expressed in Expi293 cells); also called IgG 1C10; 1C10 IgG1
[1]
  IC50 of inhibition of neutrophil elastase enzyme activity: 1800 nM
[7]
  EC50: 0.4 nM
[5]
  Kd: 0.14 nM
BSA [8]
  binding result: no binding (tested: about 200 nM)
Proteinase 3 [9]
  binding result: no binding (tested: about 200 nM)
[10]
  binding result: no binding (tested: about 200 nM)

B3: VH-Fc 1D1.43 (Fc fusion)
chain: EVQLVESGGGVVQPGRSLRLSCAASGFTFSNYAMHWVRQAPGKGLEWVAVISYDGSNKYYADSVKGRFTISRDDSTNTLYLQMNNLRAEDTAVYYCAKDLPWEWELDYWGQGTLVTVSS
notes: VH 1D1.43 converted to a bivalent antibody by fusion to human IgG1 Fc; also called VH-Fc ID1.43; not shown: human IgG1 Fc
[1]
  IC50 of inhibition of neutrophil elastase enzyme activity; fold change against the VH form (VH 1D1.43): 10 fold
[11]
  EC50 (read off the curve): ~0.7 nM
BSA [12]
  binding result: no binding (tested: about 1,000 nM)
Proteinase 3 [13]
  binding result: no binding (tested: about 1,000 nM)
[14]
  binding result: no binding (tested: about 1,000 nM)
[7]
  EC50: 0.66 nM

B4: VH 1D1.43 (other)
VH: EVQLVESGGGVVQPGRSLRLSCAASGFTFSNYAMHWVRQAPGKGLEWVAVISYDGSNKYYADSVKGRFTISRDDSTNTLYLQMNNLRAEDTAVYYCAKDLPWEWELDYWGQGTLVTVSS
notes: Expressed in E. coli, purified on Ni-NTA and detected with anti-FLAG antibody; also called Clone #2; #2 (VH)
[2]
  EC50: 4.3 nM
[3]
  EC50 (read off the curve): ~10 nM
Proteinase 3 [15]
  binding result: no binding (tested: about 30,000 nM)
[16]
  binding result: no binding (tested: about 30,000 nM)
